Reference: patent US20120331589A1

Target: Cry1Da receptor protein(s) / binding site in Spodoptera frugiperda (fall armyworm) brush border membrane vesicles (Spodoptera frugiperda)
Experiment: homologous competition: displacement of 0.5 nM 125I-Cry1Da core toxin from 150 ug/mL S. frugiperda BBMV

Substance: Cry1Da core toxin protein (non-radiolabeled) (from UniProt P19415 28-594)
- IC50: 5 nM
